Data reported in PMC7954794, “Protein context shapes the specificity of SH3 domain-mediated interactions in vivo” (Nature Communications, 2021).

Experiments:
Format in all cases: cell-based, Saccharomyces cerevisiae
[1] = system: Lsb3; assay: Deep mutational scanning of Abp1 SH3, Abp1-Lsb3 DHFR-PCA (DMS score); conditions: Abp1-Lsb3 DHFR-PCA, MTX2
Method: (§1) Single site mutation libraries were generated by a PCR-based saturation mutagenesis method[50] as described below. The mutagenesis was carried out on the pUC19 plasmid containing the SH3 domain sequence of ABP1 flanked by its homology arms subsequently used in the CRISPR mediated genomic re-integration. We used oligos containing degenerate nucleotides (NNN) to carry out the mutagenesis at each codon of the domain sequence. In the first step of the two-step PCR procedure (short PCR step), an amplicon was generated with an oligo containing the degenerate codon which is positioned within the domain sequence, and another oligo lying outside Abp1 sequence in the plasmid. Short PCR step was carried out with the following settings: 5 min at 95 °C, 35 cycles: 20 s at 98 °C, 15 s at 60 °C, 30 s at 72 °C, and a final extension of 1 min at 72 °C. The amplicon generated in this step was used as a mega primer in the second step (long PCR step) to amplify the whole plasmid. Long PCR step was carried out with the following settings: 5 min at 95 °C, 22 cycles: 20 s at 98 °C, 15 s at 68 °C, 3 min 30 s at 72 °C, and a final extension of 5 min at 72 °C. The long PCR product was digested for 2 h at 37 °C with DpnI. The digestion product was then transformed into E. coli MC1061 competent cells. In order to obtain most of the 64 possible codons, we recovered ~1000 colonies from each plate to retrieve the plasmid single mutant libraries. Saturation mutagenesis was carried out in a codon-position-wise manner. Mutants at each position were stored separately. Library quality control was assessed by amplifying the purified plasmid DNA preparations by PCR followed by Illumina sequencing as described below. The genomic insertion of the mutant libraries (one library per amino acid position) was performed by targeting the stuffer sequence in the ABP1 SH3-deleted strain as described in the strain construction section. ABP1 SH3-deleted yeast competent cells were co-transformed with pCAS containing the stuffer-specific gRNA and PCR amplified ABP1 SH3 single position mutated libraries from the pUC19 preparations. As for the library generation, ~1000 colonies from each plate were retrieved. Glycerol stocks of yeast cells were kept for each position (58 different stocks corresponding to the 58 amino acid positions of Abp1 SH3). The stocks were also validated by Illumina sequencing (see below).
(§2) Liquid DHFR-PCA experiments were performed following the generation of the ABP1 SH3 single position mutated yeast strains and were performed in biological independent duplicates. An overnight culture was started in YPD + NAT by adding the same number of cells from each yeast mutant strain (master pool). Then, the master pool and Hua2-DHFR F[3] or Lsb3-DHFR F[3] preys strains were mixed in YPD (2:1) for mating and incubated for 8 h at 30 °C. Diploid cells were selected the first time by transferring the mixture in a YPD + NAT + HPH (OD 0.5) culture for 16 h at 30 °C. The next day, the first diploid selection was transferred in SC complete pH 6.0 + NAT + HPH at 0.5 OD and the culture was grown for 24 h at 30 °C. The validation of the yeast mutant libraries was done the next day with a fraction of the diploid cells (first DHFR-PCA experiment time point without PCA selection, reference condition S2) by amplifying ABP1 SH3 genomic sequence followed by Illumina sequencing as described in the section below. Following the selection, diploid cells OD was read using a TECAN Infinite F200 Pro, and dilutions to 0.1 OD in PCA selection media without agar in a 50 mL tube was done. Tubes were incubated at 30 °C for 72 h (second-time point of the DHFR-PCA experiment, first PCA selection). A fraction of the cells (5U OD) was collected for Illumina sequencing. The cells from the first PCA step were grown for a second PCA selection step using the same procedures. […]

[2] = system: Hua2; assay: Deep mutational scanning of Abp1 SH3, Abp1-Hua2 DHFR-PCA (DMS score)
Method: as §1, §2

[3] = system: ABP1; assay: DHFR-PCA on solid medium, bait ABP1 (Fig. 1B); conditions: bait ABP1, label = prey; for medrep (log2 median colony size normalized to plate background, PCA score): 2-4 replicates
Text: Supplement 41467_2021_21873_MOESM8_ESM.xlsx, sheet "Fig1B" | column: medsize; medrep; Ratio; Score

[4] = system: 575 putative partners (preys) of 22 WT SH3-containing proteins; assay: DHFR-PCA on solid medium, WT and SH3-deleted baits (Fig. 1B); design: key to Score: 0: SH3-independent; 1: SH3-dependent PPIs; 2: SH3-inhibited PPIs; conditions: for medrep (log2 median colony size normalized to plate background, PCA score): label = prey; for Ratio (SH3-deleted/WT medrep): only significant differences shown, PPIs completely lost have a ratio of 0.1, gained PPIs 2.5
Text: To assess the requirement of SH3 domains for PPIs in vivo, we first measured binary interactions between 22 WT SH3-containing proteins (Supplementary Fig. 1A) as baits and 575 putative partners from their interconnected signaling networks using the dihydrofolate reductase protein–fragment complementation assay (DHFR-PCA) in the budding yeast Saccharomyces cerevisiae. About 33% (202/607) of the PPIs detected were described before, mostly by direct methods (Supplementary Fig. 1B, C)[11]. We repeated the experiments with baits in which the SH3s were individually replaced with a flexible linker by genome editing (SH3 domain deletion/stuffing, Fig. 1A). The stuffer DNA sequence ([…]) codes for a small flexible poly-Gly with Ser peptide ([…]) that is inspired by previous experiments[12],[13]. About a third of the SH3-containing protein interactome is qualitatively or quantitatively SH3-dependent (171 PPIs out of 607, Fig. 1B and Supplementary Fig. 1B, C). We validated the vast majority of the quantitative changes in low-throughput experiments and excluded that this is simply due to changes in protein abundance in most cases (Supplementary Fig. 1D–G). SH3-binding motifs[14] are more frequent in the SH3-dependent PPI partners when compared to sequences from random proteins, SH3-independent PPI partners or PPI partners that are stronger or gained following SH3 deletions (p values = 1.5 × 10^−17, 0.0038 and 2.1 × 10^−08, respectively; Mann–Whitney test, one-tailed, Fig. 1C). The changes we measure are therefore enriched for PPIs that depend on the direct interactions of the domains with the PPI partners.
The complete list of strains, primers, and gRNAs used in this study can be found in Supplementary Tables 1–3. All constructed yeast strains were validated by polymerase chain reaction (PCR) and confirmed by Sanger sequencing of the locus of interest. Bait strains for the DHFR-PCA experiments were constructed as follows. The genes of interest were fused at their genomic 3′ end by replacing the stop codon with a linker ([…]), the DHFR F[1,2] followed by a smaller linker (GGGGS), a 1× FLAG tag ([…]) and the NATMX4 resistance cassette via homologous recombination (all amplified from pAG25-DHFR[1,2]-linker-FLAG). The set of 615 prey strains (DHFR F[3] fusions in the BY4742 background) were retrieved from the Yeast Protein Interactome Collection[43] with the exception of 73 that were reconstructed (Supplementary Tables 1 and 2). Knockout strains were taken from the yeast knockout collection except for ABP1, BEM1, BZZ1, and SLA1, which were reconstructed by replacing the ORFs with the NATMX4 resistance cassette by homologous recombination in the BY4741 background.
Yeast SH3 domain genomic sequences were replaced by CRISPR–Cas9 genome editing. Each SH3 domain (as defined by the SMART database V8.0 except for Ysc84 SH3 (as defined by PROSITE), see Source Data for all SH3 sequences and Supplementary Table 1 for primers used) was specifically targeted by one gRNA[46]. Yeast competent cells were co-transformed with a pCAS plasmid (Addgene plasmid 60847[47]) expressing both the gRNA of interest and Streptococcus pyogenes Cas9[46] and a donor DNA sequence (stuffer) with 60 bp homology arms surrounding the SH3 DNA sequence. The Stuffer DNA was either PCR amplified or digested from a plasmid. The stuffer DNA sequence ([…]) codes for a small flexible linker ([…]) inspired by protein linkers used in structural biology[12],[13]. This type of linker is frequently used for fusing proteins without affecting the structure of the linked proteins.
The overall DHFR-PCA pipeline is based on Tarassov et al.[43] and the procedures have also been published as a visualized protocol. The screens were performed with robotically manipulated pin tools (BM5-SC1, S&P Robotics Inc.). First, the preys were cherry-picked from 96-well plates to omnitrays in a 384 format on YPD + HPH solid media. […]

[5] = bait SLA1-2, DHFR-PCA, Replicates 4 (2 for YCR009C, YDR388W)
[6] = bait SLA1-3, DHFR-PCA, Replicates 4 (2 for YCR009C, YDR388W, YIL033C)

B1: ABP1 L48L (protein, UniProt P15891 2-592, looked up)
Actin-binding protein: ALEPIDYTTHSREIDAEYLKIVRGSDPDTTWLIISPNAKKEYEPESTGSSFHDFLQLFDETKVQYGLARVSPPGSDVEKIIIIGWCPDSAPLKTRASFAANFAAVANNLFKGYHVQVTARDEDDLDENELLMKISNAAGARYSIQTSSKQQGKASTPPVKKSFTPSKSPAPVSKKEPVKTPSPAPAAKISSRVNDNNDDDDWNEPELKERDFDQAPLKPNQSSYKPIGKIDLQKVIAEEKAKEDPRLVQKPTAAGSKIDPSSDIANLKNESKLKRDSEFNSFLGTTKPPSMTESSLKNDDDKVIKGFRNEKSPAQLWAERKAKQNSGNAETKAEAPKPEVPEDEPEGEPDVKDLKSKFEGLAASEKEEEEMENKFAPPPKKSEPTIISPKPFSKPQEPVKAEEAEQPKTDYKKIGNPLPGMHIEADNEEEPEENDDDWDDDEDEAAQPPLPSRNVASGAPVQKEEPEQEEIAPSLPSRNSIPAPKQEEAPEQAPEEEIEEEAEEAAPQLPSRSSAAPPPPPRRATPEKKPKENPWATAEYDYDAAEDNELTFVENDKIINIEFVDDDWWLGELEKDGSKGLFPSNYVSLGN
modifications: synonymous codon change L48L
In the case of B1, the “lsb3sc: Frequencies scaled to the synonymous mutation distribution (DMS score)” value ([1]; scaled to synonymous mutation distribution) is reported as -0.4967, the “LSB3_MTX2: frequencies normalized to the reference condition” value ([1]; single amino acid variants of Abp1 SH3) is reported as 1.0036 and the “hua2sc: Frequencies scaled to the synonymous mutation distribution (DMS score)” value ([2]; Abp1-Hua2 DHFR-PCA, MTX2, scaled to synonymous mutation distribution) is reported as -0.5549. The “HUA2_MTX2: frequencies normalized to the reference condition” value ([2]; Abp1-Hua2 DHFR-PCA, MTX2, single amino acid variants of Abp1 SH3) was 1.058 and the “quadrant (effect of mutation on Hua2 and Lsb3 interactions)” value ([2]; classification from both Hua2 and Lsb3 DMS scores, Dest. both / Dest. Hua2 / Dest. Lsb3 / Neutral) was “Neutral”.

B2: YFR004W (protein, UniProt P43588 1-306, looked up)
Ubiquitin carboxyl-terminal …: MERLQRLMMNSKVGSADTGRDDTKETVYISSIALLKMLKHGRAGVPMEVMGLMLGEFVDDYTVNVVDVFAMPQSGTGVSVEAVDDVFQAKMMDMLKQTGRDQMVVGWYHSHPGFGCWLSSVDVNTQKSFEQLNSRAVAVVVDPIQSVKGKVVIDAFRLIDTGALINNLEPRQTTSNTGLLNKANIQALIHGLNRHYYSLNIDYHKTAKETKMLMNLHKEQWQSGLKMYDYEEKEESNLAATKSMVKIAEQYSKRIEEEKELTEEELKTRYVGRQDPKKHLSETADETLENNIVSVLTAGVNSVAIK
In the case of B2, the “medrep (log2 median colony size normalized to plate background, PCA score)” value [3] is reported as 3.9898, the “Ratio (SH3-deleted/WT medrep)” value ([3]; only significant differences showed, PPIs completely lost have a ratio of 0.1 and the gained PPIs 2.5) is reported as 1.738 and the “medrep (log2 median colony size normalized to plate background, PCA score)” value [4, 5] is reported as 2.485. For the same molecule, the Score ([4]; bait SLA1-2, label = prey) was 1, the “Ratio (SH3-deleted/WT medrep)” value ([4]; bait SLA1-2, label = prey) was 0.1 and the “medrep (log2 median colony size normalized to plate background, PCA score)” value [4, 6] was 2.485. It also gave a Score ([4]; bait SLA1-3, label = prey) of 0.

B3: YCR009C (protein, UniProt P25343 1-265, looked up)
Reduced viability upon …: MSWEGFKKAINRAGHSVIIKNVDKTIDKEYDMEERRYKVLQRAGEALQKEAKGFLDSLRAVTASQTTIAEVISNLYDDSKYVAGGGYNVGNYYLQCVQDFDSETVKQLDGPLRETVLDPITKFSTYFKEIEEAIKKRDHKKQDFDAAKAKVRRLVDKPAKDASKLPRAEKELSLAKDIFENLNNQLKTELPQLVSLRVPYFDPSFEALIKIQLRFCTDGYTRLAQIQQYLDQQSRDDYANGLLDTKIEELLGQMTSLDICALGIK
For B3, the “medrep (log2 median colony size normalized to plate background, PCA score)” value [3] was 4.682, the “medrep (log2 median colony size normalized to plate background, PCA score)” value [4, 5] was 2.15 and the Score ([4]; bait SLA1-2, label = prey) was 1. For the same molecule, the “Ratio (SH3-deleted/WT medrep)” value ([4]; bait SLA1-2, label = prey) was 0.1, the “medrep (log2 median colony size normalized to plate background, PCA score)” value [4, 6] was 2.15 and the Score ([4]; bait SLA1-3, label = prey) was 0.
